Results published in patent US20160137740A1 (AstraZeneca / MedImmune, published 2016).

Tests used:
Test in all cases: ELISA, plate coated with a dilution series of the recombinant TNFRSF protein [panel B]
[1] = target: T1, Recombinant human TNFRSF3 (LTβR) (human, UniProt P36941 28-227, limits assumed)
T1 construct: Plate-adsorbed antigen of the ELISA
Protocol: (§1) An eight point, two-fold dilution series of each recombinant human TNFRSF protein was prepared after dilution of stock proteins to 5 μg/mL in PBS. Subsequently, 50 μL of each antigen dilution was transferred in duplicate to wells of a Nunc 96-well MaxiSorp flat bottom plate, and incubated overnight at 4° C. to adsorb proteins to the plate. Afterwards, plates were washed three times with PBS in a BioTek® plate washer to remove unbound protein. Anti OX40 mAb29, 9B12, and control antibodies were diluted in PBS to a final concentration of 10 μg/mL, and 50 μL of mAb were added to each well and incubated at room temperature for one hour to bind mAb to plate-bound protein. Thereafter, wells were washed with PBS/Tween-20 0.1% (volume/volume) using a BioTek® plate washer. HRP conjugated goat anti-human or goat anti-mouse secondary antibodies at 10 μg/mL was added to each well and incubated at room temperature for 1 hour. After three washes in PBS/Tween-20 0.1%, 50 μL of TMB substrate was added to each well and incubated at room temperature for 5 minutes to develop the colorimetric product. Reactions were stopped by adding 50 μL of 0.5 molar H₂SO₄ to wells, and plates read immediately at 450 nm using an Envision C plate reader for detection of the colorimetric product.

[2] = target: T2, Recombinant human TNFRSF16 (NGFR) (human, UniProt P08138 29-250)
T2 construct: Plate-adsorbed antigen of the ELISA
T2 sequence (looked up): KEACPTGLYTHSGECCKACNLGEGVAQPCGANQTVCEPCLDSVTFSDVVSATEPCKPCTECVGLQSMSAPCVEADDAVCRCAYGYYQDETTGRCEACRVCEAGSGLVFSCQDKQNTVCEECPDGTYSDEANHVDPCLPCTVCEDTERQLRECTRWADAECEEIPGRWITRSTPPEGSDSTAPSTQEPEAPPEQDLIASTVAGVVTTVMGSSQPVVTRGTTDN
Protocol: as §1

[3] = target: T3, Recombinant human TNFRSF1β (TNFRII) (human, UniProt P20333 23-257)
T3 construct: Plate-adsorbed antigen of the ELISA; also called TNFR2; TNFRSF1B
T3 sequence (looked up): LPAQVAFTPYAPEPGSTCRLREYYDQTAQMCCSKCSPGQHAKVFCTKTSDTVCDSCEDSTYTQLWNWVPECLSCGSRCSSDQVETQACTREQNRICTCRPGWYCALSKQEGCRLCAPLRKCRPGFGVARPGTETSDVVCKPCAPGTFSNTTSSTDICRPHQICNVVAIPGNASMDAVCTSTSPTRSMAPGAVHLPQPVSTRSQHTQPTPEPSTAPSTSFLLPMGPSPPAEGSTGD
Protocol: as §1

[4] = target: T4, Recombinant human TNFRSF11B (OPG) (human, UniProt O00300 22-401, limits assumed)
T4 construct: Plate-adsorbed antigen of the ELISA; also called osteoprotegerin
T4 sequence (looked up): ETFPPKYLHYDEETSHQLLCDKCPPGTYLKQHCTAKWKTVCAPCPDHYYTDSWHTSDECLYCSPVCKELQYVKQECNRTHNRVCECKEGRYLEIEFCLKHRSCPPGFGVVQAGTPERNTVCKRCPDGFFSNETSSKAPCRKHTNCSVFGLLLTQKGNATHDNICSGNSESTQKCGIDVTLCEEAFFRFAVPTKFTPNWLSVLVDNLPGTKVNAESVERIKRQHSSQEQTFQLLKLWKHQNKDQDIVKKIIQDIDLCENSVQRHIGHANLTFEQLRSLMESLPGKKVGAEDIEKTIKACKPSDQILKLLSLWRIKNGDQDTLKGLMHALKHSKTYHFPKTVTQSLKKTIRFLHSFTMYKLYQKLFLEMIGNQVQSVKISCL
Protocol: as §1

[5] = target: T5, Recombinant human TNFRSF11A (RANK) (human, UniProt Q9Y6Q6 30-212)
T5 construct: Plate-adsorbed antigen of the ELISA; also called CD265
T5 sequence (looked up): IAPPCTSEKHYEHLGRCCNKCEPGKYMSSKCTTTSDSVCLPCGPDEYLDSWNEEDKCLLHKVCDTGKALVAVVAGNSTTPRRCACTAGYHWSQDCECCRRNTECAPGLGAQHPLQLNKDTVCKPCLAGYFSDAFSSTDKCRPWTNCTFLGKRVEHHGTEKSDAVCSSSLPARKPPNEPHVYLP
Protocol: as §1

[6] = target: T6, Recombinant human TNFRSF5 (CD40) (human, UniProt P25942 21-193)
T6 construct: Plate-adsorbed antigen of the ELISA
Protocol: as §1

[7] = target: T7, Recombinant human TNFRSF18 (GITR) (human, UniProt Q9Y5U5 26-162, limits assumed)
T7 construct: Plate-adsorbed antigen of the ELISA
T7 sequence (looked up): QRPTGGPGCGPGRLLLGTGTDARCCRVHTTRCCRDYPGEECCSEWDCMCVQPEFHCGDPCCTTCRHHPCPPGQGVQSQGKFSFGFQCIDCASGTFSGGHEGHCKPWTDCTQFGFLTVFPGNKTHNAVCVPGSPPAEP
Protocol: as §1

[8] = target: T8, Recombinant human TNFRSF21 (DR6) (human, UniProt O75509 42-349, limits assumed)
T8 construct: Plate-adsorbed antigen of the ELISA
T8 sequence (looked up): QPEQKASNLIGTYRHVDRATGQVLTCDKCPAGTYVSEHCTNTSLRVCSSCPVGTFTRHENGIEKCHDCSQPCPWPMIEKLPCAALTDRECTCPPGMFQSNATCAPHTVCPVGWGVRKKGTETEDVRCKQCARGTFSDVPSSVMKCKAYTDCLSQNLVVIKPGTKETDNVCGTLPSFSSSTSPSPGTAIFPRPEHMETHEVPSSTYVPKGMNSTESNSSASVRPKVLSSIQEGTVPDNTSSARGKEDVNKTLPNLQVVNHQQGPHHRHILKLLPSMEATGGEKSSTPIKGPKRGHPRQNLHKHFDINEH
Protocol: as §1

Measured: binding result

T1 sequence (P36941 28-227 limits assumed): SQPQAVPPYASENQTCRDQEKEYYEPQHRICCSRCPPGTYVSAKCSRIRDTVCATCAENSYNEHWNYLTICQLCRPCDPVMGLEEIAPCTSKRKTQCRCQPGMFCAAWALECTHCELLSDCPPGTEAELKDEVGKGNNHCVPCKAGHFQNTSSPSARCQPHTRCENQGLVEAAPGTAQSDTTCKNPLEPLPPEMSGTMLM
T6 sequence (P25942 21-193 limits assumed): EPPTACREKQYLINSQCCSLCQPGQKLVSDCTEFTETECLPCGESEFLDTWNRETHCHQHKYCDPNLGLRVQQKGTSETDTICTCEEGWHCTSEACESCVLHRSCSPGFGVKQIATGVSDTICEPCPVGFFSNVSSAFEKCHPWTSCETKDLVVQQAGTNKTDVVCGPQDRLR

B1: 9B12 (antibody, mouse IgG1, V domains shown)
VH: EVQLQESGPSLVKPSQTLSLTCSVTGDSFTSGYWNWIRKFPGNRLEYMGYISYNGITYHNPSLKSRISITRDTSKNHYYLQLNSVTTEDTATYFCARYRYDYDGGHAMDYWGQGTLVTVSS
VL: DIQMTQTTSSLSASLGDRVTISCRASQDISNYLNWYQQKPDGTVKLLIYYTSKLHSGVPSRFSGSGSRTDYSLTITDLDQEDIATYFCQQGSALPWTFGQGTKVEIKR
notes: mouse IgG1 kappa; also called murine mAb 9B12; mouse anti-human OX40 IgG1κ monoclonal antibody
no binding: all assays above
